The values that follow come from patent publication US20230293738A1 (Y MABS THERAPEUTICS, published 2023).

“And” between values parts separate entries of the source, which are not always exact repeats. Equal values may be shown once. Read-outs that look alike come from different tables or passages of the source.

One assay concerns the target T1, recombinant rat B7-H3 (rat, UniProt Q7TPB4 29-244, limits assumed).
T1 sequence (looked up): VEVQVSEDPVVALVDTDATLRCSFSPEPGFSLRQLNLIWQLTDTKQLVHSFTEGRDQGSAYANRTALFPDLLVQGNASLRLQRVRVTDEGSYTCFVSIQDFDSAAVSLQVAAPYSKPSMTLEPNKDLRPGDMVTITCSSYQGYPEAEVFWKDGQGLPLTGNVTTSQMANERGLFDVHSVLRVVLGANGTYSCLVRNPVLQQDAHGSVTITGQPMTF
Briefly: SPR, triplicate.

In assay [1] the target is T2, human 2Ig-B7H3 (B7H3-2Ig-His) (human, UniProt Q5ZPR3 29-466).
T2 construct: Recombinant His-tagged protein immobilised on a CM5 chip; also called 21g-B7H3; B7H3-21g-His; not shown: His tag
T2 sequence: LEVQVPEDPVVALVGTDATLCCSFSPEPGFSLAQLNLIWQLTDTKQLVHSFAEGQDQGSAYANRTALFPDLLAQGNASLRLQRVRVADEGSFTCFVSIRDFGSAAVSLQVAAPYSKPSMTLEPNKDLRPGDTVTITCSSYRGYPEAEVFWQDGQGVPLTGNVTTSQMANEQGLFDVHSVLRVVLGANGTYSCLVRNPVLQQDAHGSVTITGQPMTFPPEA
Briefly: SPR, Biacore T200, 2Ig-B7H3-His on CM5 chip, 1:1 fit.

In assay [2] the target is T3, human 4Ig-B7H3 (B7H3-4Ig-His) (human, UniProt Q5ZPR3 29-466).
T3 construct: Recombinant His-tagged protein immobilised on a CM5 chip; also called 41g-B7H3; human 4Ig-B7-H3 (dominant isoform); not shown: His tag
T3 sequence: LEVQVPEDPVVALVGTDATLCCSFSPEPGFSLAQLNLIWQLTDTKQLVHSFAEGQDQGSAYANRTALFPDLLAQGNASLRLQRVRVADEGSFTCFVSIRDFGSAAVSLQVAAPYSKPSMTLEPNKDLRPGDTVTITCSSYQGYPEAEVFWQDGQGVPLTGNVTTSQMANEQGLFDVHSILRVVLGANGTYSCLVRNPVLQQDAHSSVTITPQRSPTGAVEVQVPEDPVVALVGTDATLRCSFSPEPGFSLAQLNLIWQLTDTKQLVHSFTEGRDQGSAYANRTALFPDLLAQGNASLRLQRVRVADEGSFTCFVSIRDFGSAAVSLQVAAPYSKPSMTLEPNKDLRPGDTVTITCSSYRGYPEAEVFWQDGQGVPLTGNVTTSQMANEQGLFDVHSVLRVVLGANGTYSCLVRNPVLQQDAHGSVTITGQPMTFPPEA
The assay can be described thus: SPR, Biacore T200, 4Ig-B7H3-His on CM5 chip, 1:1 fit.

The target in assay [3] is T2, human 2Ig-B7H3 (B7H3-2Ig-His). The assay can be described thus: SPR, Biacore T200, 2Ig-B7H3-His on CM5 chip, 1:1 fit. On the procedure:
(§1) Both human B7H3 41g and 21g proteins were dissolved in PBS (Phosphate-Buffered Saline) to make 0.1 mg/ml stock solution and stored in −80° C. B7-H3 proteins were immobilized onto the CM5 sensor chip using Amine Coupling Kit. Both proteins were diluted to 10 ug/ml with 10 mM Sodium acetate, pH 5.0. […] A blank immobilized surface was used as a control
(§2) The data were analyzed by the 1:1 fitting model and default parameter setting for the rate constants using the Biacore T200 Evaluation Software, and the apparent association on rate constant (kon, ka), dissociation off rate constant (koff, kd) and equilibrium dissociation constant (KD=kd/ka) were calculated.
The source holds these as a separate data set.

Assay [4] shares this target. Briefly: SPR, Biacore T200, 2Ig-B7H3-His on CM5 chip, 1:1 fit; * beyond fitting limits. On the procedure:
as §1
(§3) Binding Assays: [0143] 1. Antibodies were diluted in HBS-EP buffer (10 mM HEPES, 150 mM NaCl, 3 mM EDTA, 0.05% Surfactant P20, pH 7.4) at varying concentrations (25-50-100-200-400 nM) prior to analysis. […] 2. Samples (60 ul) were injected over the sensor surface at a flow rate of 30 ul/min over 2 min. [0145] 3. Following completion of the association phase, dissociation was monitored in HBS-EP buffer for 10 min at the same flow rate. […] 4. At the end of each cycle, the surface was regenerated using 10 mM NaOH at a flow rate of 50 ul/min over 2×15 sec.
as §2

Assay [5] shares this target. Briefly: SPR, Biacore T200, 2Ig-B7H3-His on CM5 chip, 1:1 fit; unconjugated 8H9, lot S219, Table 3 run.
Assay [6] has the same target. Briefly: SPR, Biacore T200, 2Ig-B7H3-His on CM5 chip, 1:1 fit; unconjugated 8H9, lot S219, Table 5 run. On the procedure: as §1, §3

B1: 8H9 antibody comprising a light chain according to SEQ ID No.: 2 and heavy chain according to SEQ ID No.: 1 (antibody, mouse IgG1, kappa, V domains shown)
VH: QVQLQQSGAELVKPGASVKLSCKASGYTFTNYDINWVRQRPEQGLEWIGWIFPGDGSTQYNEKFKGKATLTTDTSSSTAYMQLSRLTSEDSAVYFCARQTTATWFAYWGQGTLVTVSA
VL: DIVMTQSPATLSVTPGDRVSLSCRASQSISDYLHWYQQKSHESPRLLIKYASQSISGIPSRFSGSGSGSDFTLSINSVEPEDVGVYYCQNGHSFPLTFGAGTKLELKR
notes: Unconjugated mouse IgG1 mAb; also called m8H9; murine 8H9
With B1, the binding result with recombinant rat B7-H3 is “no binding (tested: 3 µg/mL)”. For the same molecule, the Kd in assay [1] is 0.0123 nM; in assay [2], 4.07 nM and 3.78 nM and 3.69 nM; in assay [5] it was below 0.244 nM; in assay [6], below 0.212 nM. For the same molecule, the kon in assay [1] is 43400 M⁻¹ s⁻¹ and 46200 M⁻¹ s⁻¹ and 40900 M⁻¹ s⁻¹; in assay [2], 25200 M⁻¹ s⁻¹ and 26700 M⁻¹ s⁻¹ and 25700 M⁻¹ s⁻¹; in assay [3], 53800 M⁻¹ s⁻¹ and 47100 M⁻¹ s⁻¹. In addition, the koff in assay [2] was 0.000102 s⁻¹ and 0.000101 s⁻¹ and 9.48e-05 s⁻¹; in assay [4] it was 2.38e-07 s⁻¹ and 5.68e-07 s⁻¹. For the same molecule, the “t ½” value in assay [2] is 1.88 h and 1.91 h and 2.03 h; in assay [3], 72.9 days and 169 days.
